Consider two molecules from publication PMC7111720.

In data set [1] the target is T1, p22 (Tomato chlorosis virus (isolate AT80/99), UniProt Q001T4 1-193).
T1 sequence: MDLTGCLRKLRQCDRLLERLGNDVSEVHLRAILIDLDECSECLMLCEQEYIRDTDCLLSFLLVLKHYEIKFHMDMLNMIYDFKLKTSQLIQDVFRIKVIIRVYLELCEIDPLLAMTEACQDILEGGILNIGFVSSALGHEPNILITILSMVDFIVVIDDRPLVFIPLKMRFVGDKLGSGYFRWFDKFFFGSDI
Nature of the data set: EMSA. On the technique in general: In EMSA bound probe runs differently from free probe, usually more slowly.

In data set [2] the target is T1, p22. Nature of the data set: EMSA. The source holds these as a separate data set.

Like-named read-outs stand apart in the source and are kept apart here.

B1: 21 nt small dsRNA, free 3' OH (dsRNA)
RNA 1: ACUGGAGUUGUCCCAAUUCUU
RNA 2: GAAUUGGGACAACUCCAGUGA
On to B1, for which the binding result in data set [1] is recorded as “no binding”.

B2: 21 nt small dsRNA, DIG (dsRNA)
RNA 1: ACUGGAGUUGUCCCAAUUCUU
RNA 2: GAAUUGGGACAACUCCAGUGA
modifications: 3'-DIG on antisense strand
As for B2, the binding result in data set [2] is reported as “no binding”.
